According to patent US20170267972A1 (published 2017):

Columns and labels:
[1] = target: T1, LMP2 (Epstein-Barr virus latent membrane protein 2) peptide on HLA-A*24:02 (human); test: multimer staining
T1 peptide: IYVLVMLVL

[2] = target: T2, WT1 (modified form of the WT1 peptide) peptide on HLA-A*24:02 (human); test: killing
T2 peptide: CYTWNQMNL

Binder | binding result [1] | binding result [2]
TCR of clone LMP2#1 (TCR) alpha TRAV26-1*01 TRAJ34*01 CDR3: CIVTRFYTDKLIF beta TRBV14*02 TRBJ2-1*01 CDR3: CASSSPGSRPYNEQFF | recognises | 
TCR of clone WT1#3-3 (TCR) alpha TRAV12-1*01 TRAJ9*01 CDR3: CVVRGGGFKTIF beta TRBV20-1*01 TRBJ2-6*01 CDR3: CSARAGTGGANVLTF |  | recognises
